Results on one molecule are retold here after US20090118127A1 (Janssen / Centocor, published 2009).

In test [1] the target is T1, human tumor necrosis factor alpha (TNFα) (human, UniProt P01375 77-233).
T1 construct: also called human TNFα
Briefly: ELISA, human TNFα coated on the plate, bound antibody detected with HRP anti-human kappa. The protocol: Antibodies were assessed for binding to human TNFα using an ELISA format. Briefly, human TNFα was coated into the wells of a 96 well plate and candidate mAbs were incubated at various concentrations (20 to 0.2 ng/ml) and bound antibody was detected with HRP-labeled anti-human kappa light chain IgG (Jackson, ImmunoResearch, West Grove, Pa.).
A general note: An ELISA detects its analyte on a solid surface through an enzyme-linked reagent.

The target of test [2] is T1, human tumor necrosis factor alpha (TNFα). Description: Biacore (SPR), calculated KD.
Test [3] has the same target. Briefly: Biacore (SPR), 3 pairs of experiments. Background: Surface plasmon resonance follows binding to a sensor surface in real time, without labels.

Broadly, the EC50 (read off the curve) is the concentration that produces a half-maximal response. For orientation: Kd means the equilibrium constant for the complex coming apart. A word on the koff: it is the rate constant with which the complex falls apart. Read a low koff as slow dissociation. As a reminder, the kon is the rate constant with which the complex forms. High values mean fast association, low ones slow association.

T1 sequence (P01375 77-233 limits assumed): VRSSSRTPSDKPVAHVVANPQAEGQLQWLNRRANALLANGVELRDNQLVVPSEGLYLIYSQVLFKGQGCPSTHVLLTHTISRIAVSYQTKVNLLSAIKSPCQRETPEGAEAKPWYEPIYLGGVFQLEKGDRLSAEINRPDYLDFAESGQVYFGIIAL

B1: Structure Based Human Adapted C7 (antibody, V domains shown)
VH: EVQLVESGGGLVQPGGSLRLSCAASGFIFSNHWMNWVRQAPGKGLEWIGEIRSKSINSATHYAESVKGRFIISRDDNKNSLYLEMNSLKTEDTAEYYCARNYYGSTYDYWGQGTLVTVS
VL: EIVLTQSPDFQSVTPKEKVTITCRASQFVGSSIHWYQQKPDQSPKLLIKYASESMSGVPSRFSGSGSGTDFTFTISSLEAEDAATYYCQQSHSWPFTFGPGTKVDIK
Regarding B1, in test [1], the “EC50 (read off the curve)” value was roughly 2 ng/mL. Also, the dissociation constant Kd in test [2] is 0.07 nM. In test [3], the koff came to 5.63e-05 s⁻¹ and the kon was 803000 M⁻¹ s⁻¹.
